In test [1] the target is T1, NIK624-947 (C-terminal domain of NIK) (human, UniProt Q99558 624-947).
T1 construct: GAL4 DNA-BD or AD fusion in the two-hybrid tests; expressed from pcdnNIK (co-IP) or pcS3MTdnNIK (reporter assay) in 293-T cells; also called C-terminus of NIK; NIK C-terminus
Description: yeast two-hybrid, NIK624-947 as bait, 41 MDD as prey. An excerpt: (§1) To define the domain of cγc responsible for binding NIK, deletion mutants of cγc have been created and their binding to NIK analysed (FIG. 1). The deletion mutants were created by sequentially introduction of stop codons in the cytoplasmic domain of cγc, in gaps of 10-20 amino acids. The DNA encoding the full-length cγc or its deletion mutants were introduced into the pGADT7 prey vector (Clontech) for testing their binding to NIK in the SFY526 heterologous yeast strain by the two hybrid assay. The SFY526 yeast strain is […] for TRP and Leu. pGBKT plasmids (bait vector) have the Trp1 wild type gene and pGAD has the wild type Leu2 gene. Thus, only doubly transfected yeast will grow on selective Leu Trp media. Functional GAL4 will be restored in doubly transfected yeast when the chimeric proteins fused to GAL4 domains interact, bringing the activation domain and DNA binding domain of GAL4 to close proximity. The level of LAC-Z expression is indicative of the strength of the protein-protein interaction. Lac-Z activity was assessed by the standard beta-gal/colony lift filter assay (Clontech, Yeast Protocol Handbook, Chapter VI).
(§2) The binding of 41 MDD polypeptide to full length NIK or C-terminus NIK was tested in both orientations (i.e. 41 MDD as the pray and NIK as the bait and vice versa). […]

Test [2] has as its target T2, NF-κB-inducing kinase, NIK (MAP3K14), full length (human, UniProt Q99558 1-947).
T2 construct: range 1-947; also called full length NIK; endogenous NIK
Kind of test: yeast two-hybrid, NIK as bait, 41 MDD as prey.
From the text: as §1, §2

In test [3] the target is T2, NF-κB-inducing kinase, NIK (MAP3K14), …. Description: yeast two-hybrid.

T2 sequence (Q99558 whole entry): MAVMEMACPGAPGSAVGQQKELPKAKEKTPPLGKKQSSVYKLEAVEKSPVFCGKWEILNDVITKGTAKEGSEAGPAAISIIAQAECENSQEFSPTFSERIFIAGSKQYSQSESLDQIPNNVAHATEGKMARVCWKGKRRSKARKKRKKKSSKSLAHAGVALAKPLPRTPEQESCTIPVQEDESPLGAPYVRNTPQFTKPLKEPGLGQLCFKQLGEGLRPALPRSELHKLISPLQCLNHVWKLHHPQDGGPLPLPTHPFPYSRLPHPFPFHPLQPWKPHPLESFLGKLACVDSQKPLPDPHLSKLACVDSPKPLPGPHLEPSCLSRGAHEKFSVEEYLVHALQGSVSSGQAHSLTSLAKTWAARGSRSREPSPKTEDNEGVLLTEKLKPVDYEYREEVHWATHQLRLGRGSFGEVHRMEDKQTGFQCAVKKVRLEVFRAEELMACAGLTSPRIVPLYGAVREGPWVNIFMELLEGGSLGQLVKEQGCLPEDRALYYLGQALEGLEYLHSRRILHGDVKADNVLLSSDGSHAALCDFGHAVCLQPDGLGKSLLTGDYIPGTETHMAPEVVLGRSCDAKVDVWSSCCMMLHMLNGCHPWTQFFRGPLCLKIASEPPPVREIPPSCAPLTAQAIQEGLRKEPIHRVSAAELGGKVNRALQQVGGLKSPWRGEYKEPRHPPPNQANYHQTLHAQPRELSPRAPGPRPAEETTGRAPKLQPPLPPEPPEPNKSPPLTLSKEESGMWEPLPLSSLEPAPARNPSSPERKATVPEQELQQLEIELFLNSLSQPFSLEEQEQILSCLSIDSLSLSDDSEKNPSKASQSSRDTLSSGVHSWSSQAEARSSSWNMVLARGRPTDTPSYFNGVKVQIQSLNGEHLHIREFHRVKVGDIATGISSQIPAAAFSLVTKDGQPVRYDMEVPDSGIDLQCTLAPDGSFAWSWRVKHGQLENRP
T1 sequence (Q99558 624-947 limits assumed): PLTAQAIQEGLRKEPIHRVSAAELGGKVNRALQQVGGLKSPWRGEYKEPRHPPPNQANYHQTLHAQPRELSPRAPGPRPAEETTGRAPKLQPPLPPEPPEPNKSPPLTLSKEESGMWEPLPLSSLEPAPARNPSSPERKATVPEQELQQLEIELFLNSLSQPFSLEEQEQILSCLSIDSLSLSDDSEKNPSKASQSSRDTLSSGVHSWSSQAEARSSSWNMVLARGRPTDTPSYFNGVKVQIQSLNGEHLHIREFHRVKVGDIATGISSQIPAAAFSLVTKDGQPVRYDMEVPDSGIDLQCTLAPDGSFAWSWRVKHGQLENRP

B1: cγc 329-369 (41 MDD polypeptide) (peptide)
chain: LCLVSEIPPKGGALGEGPGASPCNQHSPYWAPPCYTLKPET
notes: GAL4 fusion (bait or prey) in two-hybrid; also called 41 amino acid polypeptide from the membrane distal domain of cγc
Turning to B1, the binding result in test [1] and in test [2] was “binds” each time.

B2: 44MPD (cγc membrane proximal domain, residues 282-325) (peptide)
chain: WLERTMPRIPTLKNLEDLVTEYHGNFSAWSGVSKGLAESLQPDY
notes: Two-hybrid constructs comprising intracellular fragments close to the membrane proximal domain
As for B2, the binding result in test [3] is listed as “binds”.

These data come from patent publication US20050272633A1 (YEDA RESEARCH AND DEVELOPMENT, published 2005).
